In patent US20120316071A1 (published 2012):
Changes are numbered by the printed parent chain. Names may count otherwise. Blank lines part the entries; values can stand above or below the binder they belong to.

Legend:
[1] = target: T1, Recombinant Human DLL4 (delta-like protein 4) (human, UniProt Q9NR61 27-524); experiment: ELISA, DLL4-coated plate, Fab in solution
T1 construct: Bought recombinant human DLL4 (R&D Systems Cat#1506-D4/CF); also called rHuman DLL4; Delta-like 4

[2] = target: T1, Recombinant Human DLL4 (delta-like …); experiment: ECL (MSD) binding assay, DLL4 on plate, Fab in solution
[3] = target: T2, Recombinant Human DLL4 (delta-like protein 4) (human, UniProt Q9NR61 27-524); experiment: ELISA, Fab on coated DLL4, absorbance at 450 nm
T2 construct: also called rHuman DLL4; Delta-like 4

[4] = target: T2, Recombinant Human DLL4 (delta-like …); experiment: ECL (MSD) binding assay, Fab on immobilised recombinant human DLL4
[5] = target: T3, Recombinant Human DLL4 (delta-like protein 4) (human, UniProt Q9NR61 27-524); experiment: ELISA, Fab on plate-coated DLL4
T3 construct: Bought recombinant human DLL4 (R&D Systems Cat#1506-D4/CF); also called rHuman DLL4; Delta-like 4

[6] = target: T3, Recombinant Human DLL4 (delta-like …); experiment: ECL (MSD) binding assay, Fab on immobilized DLL4
[7] = target: T4, Recombinant Human DLL4 (R&D Systems Cat#1506-D4/CF) (human, UniProt Q9NR61 27-524); experiment: ELISA, Fab on plate-coated DLL4, absorbance at 450 nm
T4 construct: also called rHuman DLL4; delta-like protein 4

[8] = target: T4, Recombinant Human DLL4 (R&D Systems …); experiment: ECL (MSD) multispot binding assay, Fab on immobilized recombinant human DLL4

ELISA (Signal-Noise) [1]: 0.06
ECL signal [2]: 4200
B5: Fab VH5-51_IGHD5-18*01>3_IGHJ4*01 G100K/G104T G24R & V3-4_IGLJ1*01 (Fab, V domains shown)
VH: EVQLVQSGAEVKKPGESLKISCKRSGYSFTSYWIGWVRQMPGKGLEWMGIIYPGDSDTRYSPSFQGQVTISADKSISTAYLQWSSLKASDTAMYYCARRKYSYTYDYFDYWGQGTLVTVSS
VL: QTVVTQEPSFSVSPGGTVTLTCGLSSGSVSTSYYPSWYQQTPGQAPRTLIYSTNTRSSGVPDRFSGSILGNKAALTITGAQADDESDYYCVLYMGSGISYVFGTGTKVTVL
notes: Fab made in E. coli; also called KT G24R

ELISA (Signal-Noise) [7]: 0.02
ECL Signal/Blank [8]: 40.9
B6: Fab VH5-51_IGHD5-18*01>3_IGHJ4*01 G100K/G104T I50A & V3-4_IGLJ1*01 (Fab, V domains shown)
VH: B5 VH with R24G, I50A
VL: B5 VL
notes: Tested as Fab; CH1 with His6/Flag tags (plasmid A) and lambda CL (plasmid E) come from the expression vectors; also called KT I50A

ELISA (Signal-Noise) [7]: 0.01
ECL Signal/Blank [8]: 30.6
B7: Fab VH5-51_IGHD5-18*01>3_IGHJ4*01 G100K/G104T I51A & V3-4_IGLJ1*01 (Fab, V domains shown)
VH: B5 VH with R24G, I51A
VL: B5 VL
notes: Tested as Fab; CH1 with His6/Flag tags (plasmid A) and lambda CL (plasmid E) come from the expression vectors; also called KT I51A

More lines, now with the values behind:

B1: Fab VH5-51_IGHD5-18*01>3_IGHJ4*01 G100K/G104T G24L & V3-4_IGLJ1*01 (Fab, V domains shown)
VH: B5 VH with R24L
VL: B5 VL
notes: Fab made in E. coli; also called KT G24L
ELISA (Signal-Noise) [1]: 0.09
ECL signal [2]: 19600

B2: Fab VH5-51_IGHD5-18*01>3_IGHJ4*01 G100K/G104T (KT) & V3-4_IGLJ1*01 R56D (Fab, V domains shown)
VH: B5 VH with R24G
VL: B5 VL with R56D
notes: Fab; also called H:KT & L:R56D
ELISA signal [3]: 0.19
ECL signal [4]: 87400

B3: Fab VH5-51_IGHD5-18*01>3_IGHJ4*01 G100K/G104T (KT) & V3-4_IGLJ1*01 S52C (Fab, V domains shown)
VH: B5 VH with R24G
VL: B5 VL with S52C
notes: Tested as a Fab (VH-CH1 with His and Flag tags, lambda VL-CL); also called H:KT & L:S52C
ELISA signal [5]: 0.1
ECL signal [6]: 64300

B4: Fab VH5-51_IGHD5-18*01>3_IGHJ4*01 G100K/G104T (KT) & V3-4_IGLJ1*01 S52R (Fab, V domains shown)
VH: B5 VH with R24G
VL: B5 VL with S52R
notes: Tested as a Fab (VH-CH1 with His and Flag tags, lambda VL-CL); also called H:KT & L:S52R
ELISA signal [5]: 0.15
ECL signal [6]: 85900

B8: Fab VH5-51_IGHD5-18*01>3_IGHJ4*01 G100K/G104T (KT) & V3-4_IGLJ1*01 R56G (Fab, V domains shown)
VH: B5 VH with R24G
VL: B5 VL with R56G
notes: Fab; also called H:KT & L:R56G
ELISA signal [3]: 0.19
ECL signal [4]: 93700
